For test [1], the target named is T1, Qip1 (importin α3), full-length, GST cleaved (human, UniProt O00629 1-521).
T1 construct: also called Qip1_(full); full-length Qip1; source: E. coli BL21 CodonPlus (DE3)-RIL, purified (Glutathione Sepharose 4FF), GST cleaved with PreScission protease
T1 sequence (looked up): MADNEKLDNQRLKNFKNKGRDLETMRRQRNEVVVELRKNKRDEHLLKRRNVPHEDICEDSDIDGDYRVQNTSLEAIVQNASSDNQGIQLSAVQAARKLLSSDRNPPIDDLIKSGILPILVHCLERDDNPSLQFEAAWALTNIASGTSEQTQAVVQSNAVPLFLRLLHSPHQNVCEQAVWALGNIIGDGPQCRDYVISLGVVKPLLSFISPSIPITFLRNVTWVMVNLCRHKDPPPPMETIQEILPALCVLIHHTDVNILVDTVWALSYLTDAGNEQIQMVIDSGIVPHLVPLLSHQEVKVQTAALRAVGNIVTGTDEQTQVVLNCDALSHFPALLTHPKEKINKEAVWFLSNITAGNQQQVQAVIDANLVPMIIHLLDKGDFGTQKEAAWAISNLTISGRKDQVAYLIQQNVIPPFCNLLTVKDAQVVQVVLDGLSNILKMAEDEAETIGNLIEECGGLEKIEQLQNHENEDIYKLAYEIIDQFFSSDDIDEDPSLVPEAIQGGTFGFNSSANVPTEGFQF
The experiment in a line: SPR. The following applies: both partners purified.

Test [2] deals with T2, NPI-1 (importin α5), full-length, GST cleaved (human, UniProt P52294 1-538).
T2 construct: also called NPI-1_(full); full-length NPI-1; source: E. coli BL21 CodonPlus (DE3)-RIL, purified (Glutathione Sepharose 4FF), GST cleaved with PreScission protease
T2 sequence (P52294 whole entry): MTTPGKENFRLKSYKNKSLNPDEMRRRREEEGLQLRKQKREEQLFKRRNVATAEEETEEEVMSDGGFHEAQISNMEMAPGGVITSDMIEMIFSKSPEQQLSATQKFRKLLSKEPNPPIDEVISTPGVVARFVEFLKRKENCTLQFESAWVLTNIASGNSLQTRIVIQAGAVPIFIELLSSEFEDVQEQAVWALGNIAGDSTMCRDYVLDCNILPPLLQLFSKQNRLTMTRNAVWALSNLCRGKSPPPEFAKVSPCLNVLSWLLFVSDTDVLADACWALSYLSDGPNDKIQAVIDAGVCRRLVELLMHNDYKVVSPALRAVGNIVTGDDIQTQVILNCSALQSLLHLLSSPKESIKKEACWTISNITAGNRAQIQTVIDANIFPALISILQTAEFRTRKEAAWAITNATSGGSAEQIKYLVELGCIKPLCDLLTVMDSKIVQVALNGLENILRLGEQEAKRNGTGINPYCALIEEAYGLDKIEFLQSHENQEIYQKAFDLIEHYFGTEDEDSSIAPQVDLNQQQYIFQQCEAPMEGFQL
Put plainly: SPR. The settings on record: both partners purified.

Test [3] has as its target T3, Rch1 404–529 C-terminal peptide mutant, GST cleaved (human, UniProt P52292 404-529).
T3 construct: also called Rch1 C-terminal peptide; source: E. coli BL21 CodonPlus (DE3)-RIL, purified (Glutathione Sepharose 4FF), GST cleaved with PreScission protease
Put plainly: SPR. The following applies: both partners purified.

Test [4] deals with T4, Qip1 392–537 C-terminal peptide mutant, GST cleaved (human, UniProt O00629 392-521).
T4 construct: also called Qip1 394–521 (methods); source: E. coli BL21 CodonPlus (DE3)-RIL, purified (Glutathione Sepharose 4FF), GST cleaved with PreScission protease
T4 sequence (looked up): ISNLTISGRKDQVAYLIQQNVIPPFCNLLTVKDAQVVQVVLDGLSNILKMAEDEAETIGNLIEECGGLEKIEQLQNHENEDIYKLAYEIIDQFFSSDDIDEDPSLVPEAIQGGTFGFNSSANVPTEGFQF
The experiment in a line: SPR. The following applies: both partners purified.

Test [5] addresses T5, NPI-1 404–541 C-terminal peptide mutant, GST cleaved (human, UniProt P52294 404-538).
T5 construct: also called NPI-1 406–538 (methods); source: E. coli BL21 CodonPlus (DE3)-RIL, purified (Glutathione Sepharose 4FF), GST cleaved with PreScission protease
The experiment in a line: SPR. The settings on record: both partners purified.

The target in test [6] is Rch1 (importin α1), full-length, GST cleaved (human), P52292. Put plainly: SPR. The settings on record: remark: other sources report otherwise.
In test [7] the target is T6, GST-tagged NPI-1 (importin α5), full-length (human, UniProt P52294 1-538).
T6 construct: also called GST-NPI-1; SPR1; source: E. coli BL21 CodonPlus (DE3)-RIL, purified (Glutathione Sepharose 4FF)
T6 sequence (P52294 whole entry): as the sequence (P52294 whole entry) above
Put plainly: pull-down. The following applies: both partners purified.

T5 sequence (P52294 404-538, change not shown): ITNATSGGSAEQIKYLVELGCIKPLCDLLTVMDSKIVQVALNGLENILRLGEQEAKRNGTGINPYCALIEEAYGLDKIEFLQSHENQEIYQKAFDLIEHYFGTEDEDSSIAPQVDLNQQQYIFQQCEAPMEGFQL

B1: GST-tagged-Vpr (natural protein)
chain: MEQAPEDQGPQREPYNEWTLELLEELKSEAVRHFPRIWLHNLGQHIYETYGDTWAGVEAIIRILQQLLFIHFRIGCRHSRIGVTRQRRARNGASRS
notes: also called GST-Vpr; source: E. coli, purified (GSH system, His-Trap column), dialyzed against transport buffer
A word on the Kd: it is the concentration at which binding is half-saturated. Low values mean a tighter complex, high ones a looser complex. B1: the equilibrium dissociation constant (Kd) in test [1] turned out to be 6.8 µM; in test [2], 7.4 µM; in test [3], 4.3 µM; in test [4] it was 6.5 µM; in test [5], 6.7 µM; in test [6] it was 8.9 µM.

B2: cellular apoptosis susceptibility (CAS) protein, recombinant (natural protein, UniProt P55060 1-971, looked up)
chain: MELSDANLQTLTEYLKKTLDPDPAIRRPAEKFLESVEGNQNYPLLLLTLLEKSQDNVIKVCASVTFKNYIKRNWRIVEDEPNKICEADRVAIKANIVHLMLSSPEQIQKQLSDAISIIGREDFPQKWPDLLTEMVNRFQSGDFHVINGVLRTAHSLFKRYRHEFKSNELWTEIKLVLDAFALPLTNLFKATIELCSTHANDASALRILFSSLILISKLFYSLNFQDLPEFFEDNMETWMNNFHTLLTLDNKLLQTDDEEEAGLLELLKSQICDNAALYAQKYDEEFQRYLPRFVTAIWNLLVTTGQEVKYDLLVSNAIQFLASVCERPHYKNLFEDQNTLTSICEKVIVPNMEFRAADEEAFEDNSEEYIRRDLEGSDIDTRRRAACDLVRGLCKFFEGPVTGIFSGYVNSMLQEYAKNPSVNWKHKDAAIYLVTSLASKAQTQKHGITQANELVNLTEFFVNHILPDLKSANVNEFPVLKADGIKYIMIFRNQVPKEHLLVSIPLLINHLQAESIVVHTYAAHALERLFTMRGPNNATLFTAAEIAPFVEILLTNLFKALTLPGSSENEYIMKAIMRSFSLLQEAIIPYIPTLITQLTQKLLAVSKNPSKPHFNHYMFEAICLSIRITCKANPAAVVNFEEALFLVFTEILQNDVQEFIPYVFQVMSLLLETHKNDIPSSYMALFPHLLQPVLWERTGNIPALVRLLQAFLERGSNTIASAAADKIPGLLGVFQKLIASKANDHQGFYLLNSIIEHMPPESVDQYRKQIFILLFQRLQNSKTTKFIKSFLVFINLYCIKYGALALQEIFDGIQPKMFGMVLEKIIIPEIQKVSGNVEKKICAVGITKLLTECPPMMDTEYTKLWTPLLQSLIGLFELPEDDTIPDEEHFIDIEDTPGYQTAFSQLAFAGKKEHDPVGQMVNNPKIHLAQSLHKLSTACPGRVPSMVSTSLNAEALQYLQGYLQAASVTLL
notes: also called CSE1L; source: E. coli BL21 CodonPlus (DE3)-RIL, purified (Glutathione Sepharose 4FF)
As to B2, in test [7], the “mRFP-Vpr bound to GST-NPI-1 with CAS and Q69LRanGTP, fold of the sample without CAS” value came to 0.2 fold.

(Values after article PMC3218035, “Nuclear Exportin Receptor CAS Regulates the NPI-1–Mediated Nuclear Import of HIV-1 Vpr” (PLoS ONE, 2011).)
